B1: Lcn2 mutein N10D (designed binder)
chain: QDSTSDLIPAPPLSKVPLQQNFQDNQFHGKWYVVGAAGNTWLREDKDPYKMQATIYELKEDKSYNVTNVLFMSKKCRYMIHTFVPGSQPGEFTLGSIKSWPGLTSWLVRVVSTNYNQHAMVFFKRVYQNREFFGITLYGRTKELTSELKENFIRFSKSLGLPENHIVFPVPIDQCIDG
notes: also called NIOD; NI OD
B2: Lcn2 mutein H1-G1 (designed binder)
chain: QDSTSDLIPAPPLSKVPLQQNFQDNQFHGKWYVVGCAGNVLLREDKDPLKMYATIYELKEDKSYNVTSVGFDDKKCLYKIRTFVPGSQPGEFTLGRIKSEPGGTSWLVRVVSTNYNQHAMVFFKEVAQNRETFNITLYGRTKELTSELKENFIRFSKSLGLPENHIVFPVPIDQCIDG
notes: carries a free Cys at position 36
B3: Lcn2 mutein N7E (designed binder)
chain: QDSTSDLIPAPPLSKVPLQQNFQDNQFHGKWYVVGEAGNSLLREDKDPRKMYATIYELKEDKSYNVTSVRFRSKKCHYLIRTFVPGSQPGEFTLGLIKSKPGHTSFLVRVVSTNYNQHAMVFFKTVAQNREYFFITLYGRTKELTSELKENFIRFSKSLGLPENHIVFPVPIDQCIDG
B4: Lcn2 mutein N7A (designed binder)
chain: QDSTSDLIPAPPLSKVPLQQNFQDNQFHGKWYVVGKAGNHDLREDKDPRKMQATIYELKEDKSYNVTNVRFVHKKCNYRIWTFVPGSQPGEFTLGNIKSWPGLTSWLVRVVSTNYNQHAMVFFKRVYQNRELFEITLYGRTKELTNELKENFIRFSKSLGLPENHIVFPVPIDQCIDG

Key:
BSA = target: T1, BSA (bovine, UniProt P02769 25-607); assay: ELISA on coated protein
T1 construct: also called bovine serum albumin

[1] = target: T2, recombinant human fibronectin fragment FN789 (human, UniProt P02751 1173-1539); assay: ELISA on coated protein
T2 construct: the entry may be a nucleic acid

[2] = target: T3, recombinant human fibronectin fragment FN7B8 (human, UniProt P02751 1173-1448); assay: ELISA: FN7B8 coated, mutein titrated, detected via Strep-tag II
T3 construct: no separate number is printed for the protein, so the entry may be a nucleic acid

[3] = target: T3, recombinant human fibronectin fragment …; assay: SPR (BIAcore X), FN7B8 amine-coupled (about 500 RU), mutein as analyte
Excerpt: (§1) FIG. 13 depicts the kinetic real time analysis of Lcn2 mutein N9B measured on a Biacore instrument. FN7B8 was coupled via amine chemistry to a CMD 200 m sensor chip (ΔRU=500) and the purified Lcn2 mutein was applied at varying concentrations. The measured signal is shown as a grey line whereas the curve fit is depicted as a black line in each case.
as §1, with “14” for “13”, “N7E” for “N9B”
Real time analysis of Lcn2 muteins was performed on a BIAcore X system (BIAcore, Uppsala, Sweden) using HBS/ET (20 mM Hepes, pH 7.5, 150 mM NaCl, 1 mM EDTA containing 0.005% (v/v) Tween 20) as running buffer. 200 μg/ml solution of recombinant FN7B8 in 10 mM Na-acetate, pH 4.0 was immobilized on a CMD 200 m Sensorchip (XanTec bioanalytics, Duesseldorf, Germany) using standard amine coupling chemistry (Biacore, Uppsala, Sweden), resulting in a ligand density of about 500 resonance units (RU). The purified Lcn2 mutein was applied at a flow rate of 25 μl/min at concentrations of 2.5 up to 160 nM. The sensorgrams were corrected by subtraction of the corresponding signals measured for the control channel, which had been activated and blocked with ethanolamine.

[4] = target: T4, recombinant fibronectin single domain ED-B (human); assay: SPR (BIAcore X), ED-B amine-coupled; heterogeneous analyte competing reaction model, first set
T4 construct: the entry may be a nucleic acid; also called extra domain-B; extra-domain B
Method: (§2) Real time interaction analysis of Lcn2 muteins was performed on a BIAcore X instrument using HBS/ET (20 mM Hepes, pH 7.5, 150 mM NaCl, 1 mM EDTA containing 0.005% (v/v) Tween 20) as running buffer. 100 μg/ml solution of recombinant ED-B in 10 mM Na-acetate, pH 4.0 was immobilized on a CMD 200 m Sensorchip using standard amine coupling chemistry, resulting in a ligand density of about 180 resonance units (RU). The purified Lcn2 mutein was applied at a flow rate of 25 μl/min at concentrations of 2.5 up to 160 nM. The sensorgrams were corrected by subtraction of the corresponding signals measured for the control channel, which had been activated and blocked with ethanolamine. […] In the case of N10D the heterogeneous analyte competing reaction model was used for data fitting, resulting in two sets of kinetic constants.

[5] = target: T4, recombinant fibronectin single domain …; assay: SPR (BIAcore X), ED-B amine-coupled; heterogeneous analyte competing reaction model, second set
Method: as §2

Trx-Aβ28 fusion protein [6] = target: T5, Trx-Aβ28 fusion protein (Escherichia coli (strain K12), UniProt P0AA25 1-76 = thioredoxin, Biotin-labelled through an NHS ester (2:1) in the capture and competitive ELISAs; unlabeled in the direct ELISA and as competitor.); assay: capture ELISA: mutein captured, biotinylated Trx-Aβ28 titrated
T5 construct: the entry may be a nucleic acid; also called TrxAbeta28H6
Method: (§3) FIG. 5 depicts the binding activity of the Lcn2 muteins H1-G1, S1-A4, and US7 in capture ELISAs with different biotinylated Aβ targets. StrepMAB-Immo at 10 μg/ml was immobilized on microtitre plates and employed for capturing of 1 JAM Lcn2 muteins via the Strep-tag H. In figures A to C the binding of the Lcn2 muteins S1-A4 and US7 to (A) biotinylated Aβ40, (B) biotinylated Trx-Aβ28, and (C) biotinylated MBP-Aβ40 are shown. Binding was detected by incubation with ExtrAvidin/AP and a subsequent chromogenic reaction with pNPP. Ovalbumin (Ova), thioredoxin (Trx), and maltose binding protein (MBP) were used as negative controls. Additionally, binding of wild-type (wt) lipocalin was tested. The data were fitted to a monovalent binding model.
(§4) For selective capturing of the Lcn2 muteins carrying the C-terminal Strep-tag II (Schmidt and Skerra (2007) Nat. Protoc. 2, 1528-1535), a 96-well MaxiSorp polystyrene microtitre plate (Nunc, Langenselbold, Germany) was coated with 10 μg/mL StrepMAB-Immo (IBA, Göttingen, Germany) in PBS over night at 4° C. and blocked with 3% (w/v) BSA in PBS/T at room temperature for 1 h. After 3 washing steps with PBS/T, 50 μL of a 1 μM solution of the purified Lcn2 muteins from Example 7 were applied to all wells for 1 h. After washing, 50 μL of a dilution series of the biotinylated targets Aβ40, MBP-Aβ40 or Trx-Aβ28 from Example 2 were added and incubated for 1 h whereby the biotinylated forms of Ova, MBP and Trx from Example 2 served as negative control proteins. The wells were washed again and bound conjugate was detected with 50 μL of ExtrAvidin/AP conjugate (Sigma-Aldrich, Steinheim, Germany) diluted 1:5000 in PBS/T for 1 h, followed by signal development in the presence of 100 μL 0.5 mg/mL p-nitrophenyl phosphate (AppliChem, Darmstadt, Germany) in 100 mM Tris/HCl, pH 8.8, 100 mM NaCl, 5 mM MgCl₂.

[7] = target: T6, biotinylated Aβ40 peptide (human, C-terminal biotin group attached via a lysine spacer); assay: capture ELISA: mutein captured via Strep-tag II, biotinylated Aβ40 titrated
T6 construct: Synthetic peptide (Peptide Speciality Laboratory) with a C-terminal biotin on a lysine spacer; used in the capture ELISAs
Method: (§5) FIG. 19 depicts the binding activity of the Lcn2 muteins H1GA, H1GV, and H1-G1 in capture ELISAs with the biotinylated Aβ targets Aβ40 (A) and Trx-Aβ28 (B). StrepMAB-Immo was immobilized at 10 μg/ml on microtitre plates and employed for capturing of 1 μM Lcn2 muteins via the Strep-tag H. Binding of the biotinylated targets, applied in a dilution series, was then detected by incubation with ExtrAvidin/AP and a subsequent chromogenic reaction with pNPP. […] The data were fitted to a monovalent binding model.

Trx-Aβ28 fusion protein [8] = target: T5, Trx-Aβ28 fusion protein; assay: direct ELISA: Trx-Aβ28 coated, mutein titrated, detected via Strep-tag II
Method: The Aβ targets Trx-Aβ28 and MBP-Aβ40 as well as the control protein maltose binding protein (MBP) were immobilized at 2 μM in PBS over night. Bound Lcn2 muteins were detected via their Strep-tag II using Streptavidin/AP followed by a chromogenic reaction with pNPP. As a control, the binding of wild-type (wt) lipocalin was tested. The data were fitted to a monovalent binding model.
Alternatively, for a “direct” ELISA, 2 μM unlabeled Aβ40 target from Example 2 was adsorbed onto a 96-well MaxiSorp polystyrene microliter plate (Nunc, Langenselbold, Germany) and incubated with the purified Lcn2 mutein, which was detected via the Strep-tag II using a 1:1500 dilution of Streptavidin/AP conjugate (GE Healthcare UK Ltd, Buckinghamshire, UK). As a control, 2 μM MBP from Example 2 was adsorbed onto the ELISA plate. Absorption at 405 nm was measured in a SpectraMax 250 reader (Molecular Devices, Sunnyvale, USA).

Trx-Aβ28 fusion protein [9] = target: T5, Trx-Aβ28 fusion protein; assay: capture ELISA: mutein captured via Strep-tag II, biotinylated Trx-Aβ28 titrated
Method: as §5

[10] = target: T6, biotinylated Aβ40 peptide; assay: capture ELISA: mutein captured via Strep-tag II on StrepMAB-Immo, biotinylated Aβ40 titrated
Method: as §3, §4

ovalbumin = target: T7, ovalbumin (UniProt P01012 2-386); assay: capture ELISA: 1 µM Lcn2 protein captured via Strep-tag II on coated StrepMAB-Immo, biotinylated target titrated, ExtrAvidin/AP + pNPP
T7 sequence (looked up): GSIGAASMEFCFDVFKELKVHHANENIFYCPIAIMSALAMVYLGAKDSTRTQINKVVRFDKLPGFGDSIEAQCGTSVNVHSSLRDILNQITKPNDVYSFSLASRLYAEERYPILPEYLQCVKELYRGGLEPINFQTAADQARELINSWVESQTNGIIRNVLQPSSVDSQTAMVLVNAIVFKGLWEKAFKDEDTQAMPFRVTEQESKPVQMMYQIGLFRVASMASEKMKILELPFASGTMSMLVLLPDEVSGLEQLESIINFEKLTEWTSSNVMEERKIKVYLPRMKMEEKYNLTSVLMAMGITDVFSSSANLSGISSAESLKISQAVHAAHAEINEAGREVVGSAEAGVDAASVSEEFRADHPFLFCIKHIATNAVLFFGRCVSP
Method: as §3, §4

[11] = target: T4, recombinant fibronectin single domain …; assay: SPR (BIAcore X), ED-B amine-coupled (about 180 RU), mutein as analyte
Method: (§6) FIG. 27 depicts the kinetic real time analysis of Lcn2 variants N7A (A), N7E (B), N9B (C) and N10D (D) measured on a Biacore X instrument. The single fibronectin domain ED-B was coupled via amine chemistry to a CMD 200 m sensor chip (ΔRU=180) and the purified Lcn2 variants were applied at varying concentrations. The measured signals are shown as traces together with the curve fits.
as §2

[12] = target: T4, recombinant fibronectin single domain …; assay: SPR (BIAcore X), ED-B immobilised by amine coupling, Lcn2 mutein injected at 0 to 160 nM, 1:1 model
Method: as §6, §2

T3 sequence (P02751 other isoform, or with tags, fused parts or gaps limits assumed): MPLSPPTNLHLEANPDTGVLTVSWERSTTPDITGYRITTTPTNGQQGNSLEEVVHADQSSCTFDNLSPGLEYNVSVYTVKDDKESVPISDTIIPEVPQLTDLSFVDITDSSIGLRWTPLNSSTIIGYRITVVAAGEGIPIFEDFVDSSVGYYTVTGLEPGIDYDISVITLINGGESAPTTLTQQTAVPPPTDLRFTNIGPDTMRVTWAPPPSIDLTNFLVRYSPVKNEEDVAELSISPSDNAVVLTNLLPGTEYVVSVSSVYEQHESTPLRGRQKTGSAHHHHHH
T4 sequence (chain, as listed by the source limits assumed): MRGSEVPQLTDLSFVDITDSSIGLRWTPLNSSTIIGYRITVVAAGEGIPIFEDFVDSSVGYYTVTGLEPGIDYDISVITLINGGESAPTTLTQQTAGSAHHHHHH
T1 sequence (P02769 25-607 limits assumed): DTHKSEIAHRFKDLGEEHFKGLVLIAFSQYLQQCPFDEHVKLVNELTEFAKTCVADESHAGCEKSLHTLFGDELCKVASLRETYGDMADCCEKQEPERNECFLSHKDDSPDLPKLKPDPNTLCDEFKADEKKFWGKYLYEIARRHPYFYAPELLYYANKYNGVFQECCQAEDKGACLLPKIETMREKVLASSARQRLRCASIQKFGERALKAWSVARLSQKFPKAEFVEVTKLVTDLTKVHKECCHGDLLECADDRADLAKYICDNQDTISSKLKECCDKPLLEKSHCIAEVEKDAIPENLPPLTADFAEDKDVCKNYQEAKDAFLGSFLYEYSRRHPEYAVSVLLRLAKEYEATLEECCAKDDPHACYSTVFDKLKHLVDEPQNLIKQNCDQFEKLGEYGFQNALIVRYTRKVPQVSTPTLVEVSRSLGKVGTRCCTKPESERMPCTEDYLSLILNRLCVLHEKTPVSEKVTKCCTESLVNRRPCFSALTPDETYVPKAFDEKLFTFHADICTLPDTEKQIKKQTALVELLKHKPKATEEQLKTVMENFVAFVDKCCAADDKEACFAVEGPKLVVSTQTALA
T2 sequence (P02751 other isoform, or with tags, fused parts or gaps limits assumed): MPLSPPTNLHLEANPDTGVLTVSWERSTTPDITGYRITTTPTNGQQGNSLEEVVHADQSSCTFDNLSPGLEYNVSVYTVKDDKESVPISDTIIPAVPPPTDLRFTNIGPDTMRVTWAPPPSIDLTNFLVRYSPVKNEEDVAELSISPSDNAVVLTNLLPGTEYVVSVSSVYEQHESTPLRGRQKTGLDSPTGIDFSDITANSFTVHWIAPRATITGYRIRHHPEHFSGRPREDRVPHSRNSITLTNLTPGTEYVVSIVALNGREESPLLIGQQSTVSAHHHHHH
T6 sequence (peptide, as listed by the source): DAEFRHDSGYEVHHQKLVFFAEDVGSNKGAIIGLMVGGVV

| Binder | binding result (BSA) | binding result [1] | Kd [2] [nM] | Kd [3] [nM] | koff [3] [s⁻¹] | kon [3] [M⁻¹ s⁻¹] | koff [4] [s⁻¹] | kon [4] [M⁻¹ s⁻¹] | koff [5] [s⁻¹] | kon [5] [M⁻¹ s⁻¹] | Kd (Trx-Aβ28 fusion protein [6]) [nM] | Kd [7] [nM] | Kd (Trx-Aβ28 fusion protein [8]) [nM] | Kd (Trx-Aβ28 fusion protein [9]) [nM] | Kd [10] [nM] | binding result (ovalbumin) | Kd [11] [nM] | koff [11] [s⁻¹] | kon [11] [M⁻¹ s⁻¹] | Kd [12] [nM] |
| --- | --- | --- | --- | --- | --- | --- | --- | --- | --- | --- | --- | --- | --- | --- | --- | --- | --- | --- | --- | --- |
| B1 | no binding | no binding | 51.2 | 38 | 0.058 | 1.5e+06 | 0.064 | 621000 | 0.00335 | 29400 | – | – | – | – | – | – | – | – | – | – |
| B2 | – | – | – | – | – | – | – | – | – | – | 24.3 | 21.5 | 290 | 24.4 | 16.2 | no binding | – | – | – | – |
| B3 | – | – | 30 | 7.2 | 0.03 | 4.1e+06 | – | – | – | – | – | – | – | – | – | – | 17.3 | 0.054 | 3.1e+06 | 17 |
| B4 | no binding | no binding | 14.8 | 5.8 | 0.026 | 4.6e+06 | – | – | – | – | – | – | – | – | – | – | 127 | 0.138 | 1.8e+06 | 120 |

— US20130079286A1 (Pieris, published 2013)
